Assay results reported in the supplement of paper PMC5998384.

Tests used:
[1] = tested on: HeLa Kyoto; assay: solubility in G1/S (NP-40 vs SDS abundance) (log2 ratio); higher = more soluble; conditions: cell cycle stage: G1/S
[2] = tested on: HeLa Kyoto; assay: solubility change mitosis vs G1/S (difference of NP-40 vs SDS log2 ratios) (log2 ratio difference); higher = more soluble in mitosis
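Wherever solubility change mitosis vs G1/S (difference of NP-40 vs SDS log2 ratios) is given: synchronized HeLa Kyoto cells (double thymidine block for G1/S, nocodazole release for mitosis), protein amounts in NP-40 versus SDS lysates quantified by mass spectrometry, three biological replicates.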
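Wherever solubility in G1/S (NP-40 vs SDS abundance) is given: HeLa Kyoto cells arrested at G1/S by double thymidine block, proteins quantified by TMT10plex mass spectrometry in mild NP-40 versus SDS extracts, three biological replicates.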

Sequence | solubility in G1/S (log2) [1] | solubility change mitosis (log2) [2]
MSISLSSLILLPIWINMAQIQQGGPDEKEKTTALKDLLSRIDLDELMKKDEPPLDFPDTLEGFEYAFNEKGQLRHIKTGEPFVFNYREDLHRWNQKRYEALGEIITKYVYELLEKDCNLKKVSIPVDATESEPKSFIFMSEDALTNPQKLMVLIHGSGVVRAGQWARRLIINEDLDSGTQIPFIKRAVAEGYGVIVLNPNENYIEVEKPKIHVQSSSDSSDEPAEKRERKDKVSKETKKRRDFYEKYRNPQREKEMMQLYIRENGSPEEHAIYVWDHFIAQAAAENVFFVAHSYGGLAFVELMIQREADVKNKVTAVALTDSVHNVWHQEAGKTIREWMRENCCNWVSSSEPLDTSVESMLPDCPRVSAGTDRHELTSWKSFPSIFKFFTEASEAKTSSLKPAVTRRSHRIKHEEL [FAM172A] | 0.202 | -0.00146
MSKRLSPQLQHNITEDAYCETHLEPTRLFCDVDQITLCSKCFQSQEHKHHMVCGIQEAAENYRKLFQEILNTSREKLEAAKSILTDEQERMAMIQEEEQNFKKMIESEYSMRLRLLNEECEQNLQRQQECISDLNLRETLLNQAIKLATELEEMFQEMLQRLGRVGRENMEKLKESEARASEQVRSLLKLIVELEKKCGEGTLALLKNAKYSLERSKSLLLEHLEPAHITDLSLCHIRGLSSMFRVLQRHLTLDPETAHPCLALSEDLRTMRLRHGQQDGAGNPERLDFSAMVLAAESFTSGRHYWEVDVEKATRWQVGIYHGSADAKGSTARASGEKVLLTGSVMGTEWTLWVFPPLKRLFLEKKLDTVGVFLDCEHGQISFYNVTEMSLIYNFSHCAFQGALRPVFSLCIPNGDTSPDSLTILQHGPSCDATVSP [TRIML2] | 0.0183 | -0.17
MSMILSASVIRVRDGLPLSASTDYEQSTGMQECRKYFKMLSRKLAQLPDRCTLKTGHYNINFISSLGVSYMMLCTENYPNVLAFSFLDELQKEFITTYNMMKTNTAVRPYCFIEFDNFIQRTKQRYNNPRSLSTKINLSDMQTEIKLRPPYQISMCELGSANGVTSAFSVDCKGAGKISSAHQRLEPATLSGIVGFILSLLCGALNLIRGFHAIESLLQSDGDDFNYIIAFFLGTAACLYQCYLLVYYTGWRNVKSFLTFGLICLCNMYLYELRNLWQLFFHVTVGAFVTLQIWLRQAQGKAPDYDV [SEC22A] | -0.17 | -0.0544
MSRQTATALPTGTSKCPPSQRVPALTGTTASNNDLASLFECPVCFDYVLPPILQCQSGHLVCSNCRPKLTCCPTCRGPLGSIRNLAMEKVANSVLFPCKYASSGCEITLPHTEKADHEELCEFRPYSCPCPGASCKWQGSLDAVMPHLMHQHKSITTLQGEDIVFLATDINLPGAVDWVMMQSCFGFHFMLVLEKQEKYDGHQQFFAIVQLIGTRKQAENFAYRLELNGHRRRLTWEATPRSIHEGIATAIMNSDCLVFDTSIAQLFAENGNLGINVTISMC [SIAH1] | 0.247 | -0.11
MSSESKEQHNVSPRDSAEGNDSYPSGIHLELQRESSTDFKQFETNDQCRPYHRILIERQEKSDTNFKEFVIKKLQKNCQCSPAKAKNMILGFLPVLQWLPKYDLKKNILGDVMSGLIVGILLVPQSIAYSLLAGQEPVYGLYTSFFASIIYFLLGTSRHISVGIFGVLCLMIGETVDRELQKAGYDNAHSAPSLGMVSNGSTLLNHTSDRICDKSCYAIMVGSTVTFIAGVYQVAMGFFQVGFVSVYLSDALLSGFVTGASFTILTSQAKYLLGLNLPRTNGVGSLITTWIHVFRNIHKTNLCDLITSLLCLLVLLPTKELNEHFKSKLKAPIPIELVVVVAATLASHFGKLHENYNSSIAGHIPTGFMPPKVPEWNLIPSVAVDAIAISIIGFAITVSLSEMFAKKHGYTVKANQEMYAIGFCNIIPSFFHCFTTSAALAKTLVKESTGCHTQLSGVVTALVLLLVLLVIAPLFYSLQKSVLGVITIVNLRGALRKFRDLPKMWSISRMDTVIWFVTMLSSALLSTEIGLLVGVCFSIFCVILRTQKPKSSLLGLVEESEVFESVSAYKNLQIKPGIKIFRFVAPLYYINKECFKSALYKQTVNPILIKVAWKKAAKRKIKEKVVTLGGIQDEMSVQLSHDPLELHTIVIDCSAIQFLDTAGIHTLKEVRRDYEAIGIQVLLAQCNPTVRDSLTNGEYCKKEEENLLFYSVYEAMAFAEVSKNQKGVCVPNGLSLSSD [SLC26A2] | -0.0844 | -0.0606
MSSPGIDGDPKPPCLPRNGLVKLPGQPNGLGAASITKGTPATKNRPCQPPPPPTLPPPSLAAPLSRAALAGGPCTPAGGPASALAPGHPAERPPLATDEKILNGLFWYFSACEKCVLAQVCKAWRRVLYQPKFWAGLTPVLHAKELYNVLPGGEKEFVNLQGFAARGFEGFCLVGVSDLDICEFIDNYALSKKGVKAMSLKRSTITDAGLEVMLEQMQGVVRLELSGCNDFTEAGLWSSLSARITSLSVSDCINVADDAIAAISQLLPNLAELSLQAYHVTDTALAYFTARQGHSTHTLRLLSCWEITNHGVVNVVHSLPNLTALSLSGCSKVTDDGVELVAENLRKLRSLDLSWCPRITDMALEYVACDLHRLEELVLDRCVRITDTGLSYLSTMSSLRSLYLRWCCQVQDFGLKHLLALGSLRLLSLAGCPLLTTTGLSGLVQLQELEELELTNCPGATPELFKYFSQHLPRCLVIE [FBXL16] | 0.0543 | 0.212
MSSPPEGKLETKAGHPPAVKAGGMRIVQKHPHTGDTKEEKDKDDQEWESPSPPKPTVFISGVIARGDKDFPPAAAQVAHQKPHASMDKHPSPRTQHIQQPRK [DAP] | -0.1 | 0.309
MSTAMNFGTKSFQPRPPDKGSFPLDHLGECKSFKEKFMKCLHNNNFENALCRKESKEYLECRMERKLMLQEPLEKLGFGDLTSGKSEAKK [COX19] | 0.00408 | 0.143
MSTQDERQINTEYAVSLLEQLKLFYEQQLFTDIVLIVEGTEFPCHKMVLATCSSYFRAMFMSGLSESKQTHVHLRNVDAATLQIIITYAYTGNLAMNDSTVEQLYETACFLQVEDVLQRCREYLIKKINAENCVRLLSFADLFSCEELKQSAKRMVEHKFTAVYHQDAFMQLSHDLLIDILSSDNLNVEKEETVREAAMLWLEYNTESRSQYLSSVLSQIRIDALSEVTQRAWFQGLPPNDKSVVVQGLYKSMPKFFKPRLGMTKEEMMIFIEASSENPCSLYSSVCYSPQAEKVYKLCSPPADLHKVGTVVTPDNDIYIAGGQVPLKNTKTNHSKTSKLQTAFRTVNCFYWFDAQQNTWFPKTPMLFVRIKPSLVCCEGYIYAIGGDSVGGELNRRTVERYDTEKDEWTMVSPLPCAWQWSAAVVVHDCIYVMTLNLMYCYFPRSDSWVEMAMRQTSRSFASAAAFGDKIFYIGGLHIATNSGIRLPSGTVDGSSVTVEIYDVNKNEWKMAANIPAKRYSDPCVRAVVISNSLCVFMRETHLNERAKYVTYQYDLELDRWSLRQHISERVLWDLGRDFRCTVGKLYPSCLEESPWKPPTYLFSTDGTEEFELDGEMVALPPV [KBTBD2] | -0.319 | -0.00685
MSVDKAELCGSLLTWLQTFHVPSPCASPQDLSSGLAVAYVLNQIDPSWFNEAWLQGISEDPGPNWKLKVSNLKMVLRSLVEYSQDVLAHPVSEEHLPDVSLIGEFSDPAELGKLLQLVLGCAISCEKKQDHIQRIMTLEESVQHVVMEAIQELMTKDTPDSLSPETYGNFDSQSRRYYFLSEEAEEGDELQQRCLDLERQLMLLSEEKQSLAQENAGLRERMGRPEGEGTPGLTAKKLLLLQSQLEQLQEENFRLESGREDERLRCAELEREVAELQHRNQALTSLAQEAQALKDEMDELRQSSERAGQLEATLTSCRRRLGELRELRRQVRQLEERNAGHAERTRQLEDELRRAGSLRAQLEAQRRQVQELQGQRQEEAMKAEKWLFECRNLEEKYESVTKEKERLLAERDSLREANEELRCAQLQPRGLTQADPSLDPTSTPVDNLAAEILPAELRETLLRLQLENKRLCRQEAADRERQEELQRHLEDANRARHGLETQHRLNQQQLSELRAQVEDLQKALQEQGGKTEDAISILLKRKLEEHLQKLHEADLELQRKREYIEELEPPTDSSTARRIEELQHNLQKKDADLRAMEERYRRYVDKARMVMQTMEPKQRPAAGAPPELHSLRTQLRERDVRIRHLEMDFEKSRSQREQEEKLLISAWYNMGMALQQRAGEERAPAHAQSFLAQQRLATNSRRGPLGRLASLNLRPTDKH [HOOK2] | 0.231 | -0.0619
